{
  "source": "paper PMC4607316",
  "about": "(Nature, 2015)",
  "binders": {"B1": {"name": "Syt1 E295A, Y338W (natural protein, rat, UniProt P21707 1-421, looked up)", "chain": "MVSASHPEALAAPVTTVATLVPHNATEPASPGEGKEDAFSKLKQKFMNELHKIPLPPWALIAIAIVAVLLVVTCCFCVCKKCLFKKKNKKKGKEKGGKNAINMKDVKDLGKTMKDQALKDDDAETGLTDGEEKEEPKEEEKLGKLQYSLDYDFQNNQLLVGIIQAAELPALDMGGTSDPYVKVFLLPDKKKKFETKVHRKTLNPVFNEQFTFKVPYSELGGKTLVMAVYDFDRFSKHDIIGEFKVPMNTVDFGHVTEEWRDLQSAEKEEQEKLGDICFSLRYVPTAGKLTVVILAAKNLKKMDVGGLSDPYVKIHLMQNGKRLKKKKTTIKKNTLNPWYNESFSFEVPFEQIQKVQVVVTVLDYDKIGKNDAIGKVFVGYNSTGAELRHWSDMLANPRRPIAQWHTLQVEEEVDAMLAVKK"}, "B2": {"name": "Syt1 R281A, R398A, R399A (natural protein, rat, UniProt P21707 1-421, looked up)", "chain": "B1 chain with R281A, A295E, W338Y, R398A, R399A"}, "B3": {"name": "Syt1 R398Q, R399Q (natural protein, rat, UniProt P21707 1-421, looked up)", "chain": "B1 chain with A295E, W338Y, R398Q, R399Q"}},
  "note": "Numbering of substitutions follows the chain as printed. Names may count otherwise.",
  "data": [
    {"target": "syntaxin-1A (endogenous, cultured mouse neurons) (mouse (endogenous in cultured …, UniProt O35526 1-288))", "sequence (O35526 whole entry)": "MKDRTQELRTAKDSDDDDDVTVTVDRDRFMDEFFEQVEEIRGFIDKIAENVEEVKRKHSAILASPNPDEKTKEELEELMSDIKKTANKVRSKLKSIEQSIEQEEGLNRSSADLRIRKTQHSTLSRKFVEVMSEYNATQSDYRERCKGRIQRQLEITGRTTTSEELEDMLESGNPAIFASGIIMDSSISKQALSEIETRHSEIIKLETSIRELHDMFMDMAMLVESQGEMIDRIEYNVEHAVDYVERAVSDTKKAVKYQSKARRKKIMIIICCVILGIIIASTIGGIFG", "test": "co-IP", "units": {"reduction of co-immunoprecipitated Syt1 against Syt1 WT": "%"}, "values": [
      {"binder": "B1", "reduction of co-immunoprecipitated Syt1 against Syt1 WT": "~50"},
      {"binder": "B2", "reduction of co-immunoprecipitated Syt1 against Syt1 WT": "~50"},
      {"binder": "B3", "reduction of co-immunoprecipitated Syt1 against Syt1 WT": "~50"}
    ]}
  ]
}
